Measured values reported in patent publication US20260167718A1 (Merck Sharp & Dohme, published 2026).
Read-outs that look alike come from different tables or passages of the source.

T1: rhesus ILT3-His tagged recombinant protein (rhesus monkey (Macaca mulatta))
T1 construct: also called ILT3_MM; not shown: His tag
T1 chain: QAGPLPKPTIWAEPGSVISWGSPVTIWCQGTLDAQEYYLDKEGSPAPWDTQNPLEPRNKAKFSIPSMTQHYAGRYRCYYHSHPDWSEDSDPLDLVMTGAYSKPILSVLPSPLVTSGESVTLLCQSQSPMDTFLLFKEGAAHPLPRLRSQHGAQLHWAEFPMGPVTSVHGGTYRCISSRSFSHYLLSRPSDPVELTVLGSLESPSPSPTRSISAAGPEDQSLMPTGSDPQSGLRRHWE


Tests used:
[1] = biological target: T2, Human ILT3 (LILRB4) extracellular domain with C-terminal His Tag (human, UniProt Q8NHJ6 22-259); test: Biacore SPR, column huILT3 KD (nM)
T2 construct: the claims count residues 1-238 as the extracellular domain; also called human ILT3-His; ILT3_H

[2] = biological target: T2, Human ILT3 (LILRB4) extracellular …; test: SPR (Biacore), human ILT3-His
Procedure: (§1) The binding kinetics and affinities of anti-human ILT3 clones for human or rhesus ILT3-His tagged recombinant protein were measured by surface plasmon resonance using a Biacore™ T200 system (GE Healthcare, Piscataway, NJ). HBS-EP+ buffer (BR-1006-69) was used as the running buffer. Anti-human Fc antibody (Human Fc Capture Kit, BR100839, GE Healthcare) was immobilized via amine coupling chemistry in all four flow cells on a Series S CM5 sensor chip (BR100530 or 29149603, GE Healthcare) following manufacturer instructions. Flow cell 1 was used as reference for background subtraction and was not used for capture. […] Following each injection cycle, all four flow cells were regenerated using 30 second injection of 3M MgCl₂ solution at a flow rate of 10 μL/minute. Reference subtracted sensorgrams were fit to a 1:1 Langmuir Binding Model in the Biacore™ T200 Evaluation Software (Version 2.0) to determine the association (ka) and dissociation (kd) rate constants and the equilibrium dissociation constant KD (=kd/ka).

[3] = biological target: T1, rhesus ILT3-His tagged recombinant …; test: Biacore SPR, column rhILT3 KD (nM)
[4] = biological target: T1, rhesus ILT3-His tagged recombinant …; test: SPR (Biacore), rhesus ILT3-His
Procedure: as §1

[5] = biological target: T3, human ILT3 expressed on cells (human, UniProt Q8NHJ6 22-448); test: cELISA, CHO human ILT3 cells
T3 construct: whole, on cells; also called huILT3; LILRB4

[6] = biological target: T4, Rhesus monkey ILT3 expressed on CHO-K1 cells (rhesus monkey (Macaca mulatta)); test: cELISA, CHO rhesus ILT3 cells
T4 construct: whole, on cells; also called rhILT3; CHO-rhesus ILT3

[7] = biological target: T2, Human ILT3 (LILRB4) extracellular …; test: SPR (Biacore), human ILT3-His; remark: listed apart in the source
[8] = biological target: T3, human ILT3 expressed on cells; test: cELISA, CHO human ILT3 cells; remark: listed apart in the source
Procedure: Mouse anti-human ILT3 antibodies were tested for binding to human ILT3, and cross-reactivity to Rhesus monkey ILT3, human ILT5, human ILT7, human ILT8, and human ILT11 expressing CHO-K1 cells using a cell-based ELISA format. CHO-K1 cells were plated in 96-well tissue-culture plates in 50 μL of DMEM/F12, 10% BCS and gentamycin (CHO-K1 media). Cells were plated at either 2×10⁴ cells/well two days prior to the assay or 4×10⁴ cells/well one day prior to the assay. Media was removed from the wells prior to adding the test samples. Purified antibody was serially-diluted in CHO-K1 media and added to the CHO-K1 plates. The samples were incubated at room temperature for 30-60 minutes and plates were washed three times with PBS/05% Tween-20 using the cell wash program on the Biotek EL405x Select CW plate washer. Binding was detected using an HRP-conjugated goat anti-mouse IgG (Southern Biotech cat #1031-05) secondary antibody added at a 1:2000 dilution in CHO-K1 media and incubated at room temperature for 30-60 minutes. Assay plates were washed as above and developed with TMB and stopped with TMB stop solution (KPL cat #50-85-06). The absorbance at 450 nm—620 nm was determined. Mouse IgG1 (MIgG1) served as a control.

Binder | Kd [1] | Kd [2] | Kd [3] | Kd [4] | EC50 [5] | EC50 [6] | Kd [7] | EC50 [8]
Humanized anti-ILT3 mAb ((52B8 VH1 M64V/VL7) L234A L235A D265S) IgG1/Kappa (antibody, also called mAb 28) heavy: not shown light: DIQLTQSPSSLSASVGDRVTITCRASEKVDSFGNSFMHWYQQKPGKAPKLLIYLTSNLDSGVPSRFSGSGSRTDFTLTISSLQPEDFATYYCQQNNEDPYTFGQGTKLEIKRTVAAPSVFIFPPSDEQLKSGTASVVCLLNNFYPREAKVQWKVDNALQSGNSQESVTEQDSKDSTYSLSSTLTLSKADYEKHKVYACEVTHQGLSSPVTKSFNRGEC | 0.57 nM | 0.57 nM | 5.56 nM | 5.6 nM |  |  |  | 
Humanized anti-ILT3 mAb (52B8 VH1 M64V/VL5) IgG4 S228P/Kappa (antibody, also called mAb 30; humanized 52B8 VH1 M64V/VL5) heavy: not shown light: DIQLTQSPSSLSASVGDRVTITCRASEKVDSFGNSFMHWYQQKPGKAPKLLIYLTSNLDSGVPSRFSGSGSGTDFTLTISSLQPEDFATYYCQQNNEDPYTFGQGTKLEIKRTVAAPSVFIFPPSDEQLKSGTASVVCLLNNFYPREAKVQWKVDNALQSGNSQESVTEQDSKDSTYSLSSTLTLSKADYEKHKVYACEVTHQGLSSPVTKSFNRGEC | 0.6 nM | 0.6 nM | 4.8 nM | 4.8 nM |  |  |  | 
Humanized anti-ILT3 mAb ((52B8 VH1 M64V/VL6) L234A L235A D265S) IgG1/Kappa (antibody, also called mAb 27) heavy: not shown light: DIQMTQSPSSLSASVGDRVTITCRASEKVDSFGNSFMHWYQQKPGKAPKLLIYLTSNLDSGVPSRFSGSGSRTDFTLTISSLQPEDFATYYCQQNNEDPYTFGQGTKLEIKRTVAAPSVFIFPPSDEQLKSGTASVVCLLNNFYPREAKVQWKVDNALQSGNSQESVTEQDSKDSTYSLSSTLTLSKADYEKHKVYACEVTHQGLSSPVTKSFNRGEC | 0.92 nM | 0.92 nM | 10.3 nM | 10 nM |  |  |  | 
Humanized anti-ILT3 mAb (52B8 VH2 M64L/VL2) IgG4 S228P/Kappa (antibody, V domains shown, also called mAb 22) VH: EVQLVESGGGLVQPGGSLRLSCAASGFTFSNYGMSWVRQAPGKGLEWVATISGGGDYTNYPDSLRGRFTISRDNAKNSLYLQMNSLKAEDTAVYYCGRRLWFRSLYYAMDYWGQGTLVTVSS VL: DIVLTQSPDSLAVSLGERATINCRASEKVDSFGNSFMHWYQQKPGQPPKLLIYLTSNLDSGVPDRFSGSGSGTDFTLTISSLQAEDVAVYYCQQNNEDPYTFGQGTKLEIKR |  | 0.97 nM |  | 21 nM | 0.057 µg/mL | 0.081 µg/mL |  | 
Mouse anti-ILT3 mAb 11D1 IgG2b/Kappa (antibody, V domains shown, Mouse IgG2b/Kappa; also called p11D1; LB182.11D1.1A1) VH: QVQLQQSGAELMKPGASVKISCKATGYTFRTYWIEWVKQRPGHGLEWIGEILPGNGNTHFNENFKDKATFTADTSSNAAYMQLSSLTSEDSAVYYCVRRLGRGPFDFWGQGTTLTVSS VL: DIQMTQSPSSLSVSLGGKVTITCKASQDINEYIGWYQRKPGKGPRLLIHYTSTLQSGIPSRFSGSGSGRDYSLSISNLEPEDIATYYCLQYANPLPTFGGGTKLEIK |  |  |  |  | 50.5 µg/mL |  | 14.1 nM | 0.0505 µg/mL
Humanized anti-ILT3 mAb (52B8 VH1 M64V/VL2) IgG4 S228P/Kappa (antibody, also called mAb 10) heavy: not shown light: DIVLTQSPDSLAVSLGERATINCRASEKVDSFGNSFMHWYQQKPGQPPKLLIYLTSNLDSGVPDRFSGSGSGTDFTLTISSLQAEDVAVYYCQQNNEDPYTFGQGTKLEIKRTVAAPSVFIFPPSDEQLKSGTASVVCLLNNFYPREAKVQWKVDNALQSGNSQESVTEQDSKDSTYSLSSTLTLSKADYEKHKVYACEVTHQGLSSPVTKSFNRGEC | 0.72 nM | 1.1 nM | 8.77 nM | 22 nM | 0.085 µg/mL | 0.148 µg/mL |  | 

Other lines, results leading:

Kd [1] | Kd [2] | Kd [3] | Kd [4] | EC50 [5] | EC50 [6] | Kd [7] | EC50 [8] | Binder
0.88 nM | 0.88 nM | 10.3 nM | 10 nM |  |  |  |  | Humanized anti-ILT3 mAb (52B8 VH1 M64V/VL6) IgG4 S228P/Kappa (antibody, also called mAb 31) heavy: not shown light: DIQMTQSPSSLSASVGDRVTITCRASEKVDSFGNSFMHWYQQKPGKAPKLLIYLTSNLDSGVPSRFSGSGSRTDFTLTISSLQPEDFATYYCQQNNEDPYTFGQGTKLEIKRTVAAPSVFIFPPSDEQLKSGTASVVCLLNNFYPREAKVQWKVDNALQSGNSQESVTEQDSKDSTYSLSSTLTLSKADYEKHKVYACEVTHQGLSSPVTKSFNRGEC
0.56 nM | 0.56 nM | 5.74 nM | 5.7 nM |  |  |  |  | Humanized anti-ILT3 mAb ((52B8 VH1 M64V/VL8) L234A L235A D265S) IgG1/Kappa (antibody, also called mAb 29) heavy: not shown light: DIQLTQSPSSLSASVGDRVTITCRASEKVDSFGNSFMHWYQQKPGKAPKLLIYLTSNLDSGVPARFSGSGSRTDFTLTISSLQPEDFATYYCQQNNEDPYTFGQGTKLEIKRTVAAPSVFIFPPSDEQLKSGTASVVCLLNNFYPREAKVQWKVDNALQSGNSQESVTEQDSKDSTYSLSSTLTLSKADYEKHKVYACEVTHQGLSSPVTKSFNRGEC
0.54 nM | 0.54 nM | 5.59 nM | 5.6 nM |  |  |  |  | Humanized anti-ILT3 mAb (52B8 VH1 M64V/VL8) IgG4 S228P/Kappa (antibody, also called mAb 33) heavy: not shown light: DIQLTQSPSSLSASVGDRVTITCRASEKVDSFGNSFMHWYQQKPGKAPKLLIYLTSNLDSGVPARFSGSGSRTDFTLTISSLQPEDFATYYCQQNNEDPYTFGQGTKLEIKRTVAAPSVFIFPPSDEQLKSGTASVVCLLNNFYPREAKVQWKVDNALQSGNSQESVTEQDSKDSTYSLSSTLTLSKADYEKHKVYACEVTHQGLSSPVTKSFNRGEC
0.53 nM | 0.53 nM | 5.61 nM | 5.6 nM |  |  |  |  | Humanized anti-ILT3 mAb (52B8 VH1 M64V/VL7) IgG4 S228P/Kappa (antibody, also called mAb 32) heavy: not shown light: DIQLTQSPSSLSASVGDRVTITCRASEKVDSFGNSFMHWYQQKPGKAPKLLIYLTSNLDSGVPSRFSGSGSRTDFTLTISSLQPEDFATYYCQQNNEDPYTFGQGTKLEIKRTVAAPSVFIFPPSDEQLKSGTASVVCLLNNFYPREAKVQWKVDNALQSGNSQESVTEQDSKDSTYSLSSTLTLSKADYEKHKVYACEVTHQGLSSPVTKSFNRGEC
0.61 nM | 0.61 nM | 4.9 nM | 4.9 nM |  |  |  |  | Humanized anti-ILT3 mAb ((52B8 VH1 M64V/VL5) L234A L235A D265S) IgG1/Kappa (antibody, also called mAb 26) heavy: not shown light: DIQLTQSPSSLSASVGDRVTITCRASEKVDSFGNSFMHWYQQKPGKAPKLLIYLTSNLDSGVPSRFSGSGSGTDFTLTISSLQPEDFATYYCQQNNEDPYTFGQGTKLEIKRTVAAPSVFIFPPSDEQLKSGTASVVCLLNNFYPREAKVQWKVDNALQSGNSQESVTEQDSKDSTYSLSSTLTLSKADYEKHKVYACEVTHQGLSSPVTKSFNRGEC
 | 0.77 nM |  | 15 nM | 0.088 µg/mL | 0.12 µg/mL |  |  | Humanized anti-ILT3 mAb (52B8 VH1 M64V/VL5 N34Q) IgG4 S228P/Kappa (antibody, V domains shown, also called mAb 46; humanized 52B8) VH: EVQLVESGGGLVQPGGSLRLSCAASGFTFSNYGMSWVRQAPGKGLEWVATISGGGDYTNYPDSVRGRFTISRDNAKNSLYLQMNSLRAEDTAVYYCGRRLWFRSLYYAMDYWGQGTLVTVSS VL: DIQLTQSPSSLSASVGDRVTITCRASEKVDSFGQSFMHWYQQKPGKAPKLLIYLTSNLDSGVPSRFSGSGSGTDFTLTISSLQPEDFATYYCQQNNEDPYTFGQGTKLEIKR
0.74 nM | 0.74 nM | 8.66 nM | 8.7 nM |  |  |  |  | Humanized anti-ILT3 mAb ((52B8 VH1 M64V/VL2) L234A L235A D265S) IgG1/Kappa (antibody, also called mAb 25) heavy: not shown light: DIVLTQSPDSLAVSLGERATINCRASEKVDSFGNSFMHWYQQKPGQPPKLLIYLTSNLDSGVPDRFSGSGSGTDFTLTISSLQAEDVAVYYCQQNNEDPYTFGQGTKLEIKRTVAAPSVFIFPPSDEQLKSGTASVVCLLNNFYPREAKVQWKVDNALQSGNSQESVTEQDSKDSTYSLSSTLTLSKADYEKHKVYACEVTHQGLSSPVTKSFNRGEC
